Measured values reported in the nanobody polyreactivity screen of Harvey et al. (2022).

Test: yeast display, Sf9 membrane polyspecificity reagent, FACS + sequencing; frameworks hold sequencing errors
In short: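 Galactose-induced (36–48 hours) yeast carrying a synthetic nanobody display library were exposed to 10% biotinylated, detergent-solubilized Sf9 membrane reagent at 4 °C for 1 hour. FACS followed streptavidin microbead enrichment, using low and high (top ~1%) gates for expression (anti-HA) and reagent binding (streptavidin). Colony PCR, MiSeq 2 × 250 sequencing and CDR-length filtering followed. Labels for polyreactivity reflect the gate of origin.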

| Sequence | polyreactivity (PSR sort gate) |
| --- | --- |
| QVQLVESGGGLVQAGVSLRLSCAASGGTFPKYTMGWYRQAPGKERELVAAITSRGTRTYYADSVKARFTISRDNAKNTVYLQMNSLKTEDTAVYYCAAYFDRHRYDYWGQGTQVTVSS | high polyreactivity |
| QVQLVESGGGLVQAGGSLRLSCAASGRTFGYNAMGWYRQAPGKERELVASISYSGGSTYYADSVKGRFTISRDTAKNTVYLQMNSLKPEDTAVYYCSAKYWYWQSPSKYYYWGQGTQVTVSS | high polyreactivity |
| QVQLVESGGGLVQAGGSLRLSCAASGRIFRVNAMGWYRQAPGKERELVASITKSTGSTYYADSVKGRFTISRDNAKNTVYLQMNSLKPEDTAVYYCAKAASYPVRAFYYWGQGTQVTVSS | high polyreactivity |
| QVQLVESGGGLVQAGGSLRLSCAASGSIFYGYTMGWSRQAPGKEREFVAAITGSGGSTYYADSVKGRFTISRDTPKNTVYVQMNTLKPEDTAVYYCAARRYVNRRYDYWGQGTQVTVSS | high polyreactivity |
| QVQLVESGGGLVQAGGSLRLSCAASGRTFRYNAMGWYRQAPGKERELVAAISSGDRTNYADSVKGRFTISRDNAKNTVYLQMNSLKPEDTAVYYCAAPTDSYYEFDYWGQGTQVTVSS | low polyreactivity |
| QVQLVESRGGLVQAGGSLRLSCAASGFSFAYYAMGWYTQAPGIERELVAGISAGYGSTYYADSVKGRFTISRDNAKNTVYLQMNSLKPEDTAVYYCAADTSSTSINGDIYDYEYWGQGTQVTVSS | low polyreactivity |
| QVQLVESGGGLVQAGGSLRLSCAASGFTFVYYAMGWYRQAPGKERELVATISGHGGRTYYADSVKGRFTISRDNAKNTVYLQMNSLKPEDTAVYYCAALLYIRSVGYDYWGQGTQVTVSS | low polyreactivity |
| QVQLVESGGGLVKAGGSLRLSCAASGRTFRYNAMGWYRQPPGKERELVAVINSNGGSTYYADSVKGRFTISRDNAKNTVYLQMNSLKPEDTAVYYCAADYIRIQEYDYWGQGTQVTVSS | low polyreactivity |
| QVQLVESGGGLVQAGGSLRLSCAASGRTFGRNAMGWYRQATGKERELVAAISRSGASTYYADSVKGRFTISRDNAKNTVYLQMNSLKPEDTAVYYCAKDVWGSRYAYDYWGQGTQVTVSS | low polyreactivity |
| QVQLVESGGGLVQAGGSLRLSCAASGIIFYVYAMGWYRQAPGKERELVAAISTSGGSTYYADSVKGRFTISRDNAKNTVYLQMNSLKPEDTAVYYCAADRPARSPKGSVDYWGQGTQVTVSS | high polyreactivity |
| QVQLVESGGGLVQAGGSLRLSCAASGRTLIYNVMGWYRQAPGKERELVAAITNGGSTYYADSVKGRFTISRDNAKNTVYLQMNSLKPEDTAVYYCATRYGKTYWGQGNQVTVSS | high polyreactivity |
| QVQLVESGGGLVQAGGSLRLSCAAYGGIFPAYAMGWYRQAPGKERELVAAISSSGRTYYADSVKGRFTISRDNAKNTVYLQMNSVKPEDTAVYYCAAYGGYRGWVFGSYGSWGQGTQVTVSS | high polyreactivity |
| QVQLQESGGGLVQAGGSLRLSCAASGYISTFSSEMGWYRQAPGKERELVASIAPGCTTSYADSVKGRFTISRDNAKNTVYLQMNSLKPEDTAVYYCAVGNGLSRYVYGDYDYWGQGTQVTVSS | high polyreactivity |
| QVQLVESGGGLVQAGGSHRLSCAASGIIFRGYPMGWYRPAPGIERELVASITRRRGSTRYADSVKGRFTISRDNAKNTVYLQMNSLKPEDTAVYYCAAVGVGKTSTAYGYWGQGTQVTVSS | high polyreactivity |
| QVQLVESRGGLLQAGGSLRLSCAASGFTFRQYTMGWYRQAPGKERELVAGITSSGTRTYYADSVKGRFTISRDNAKNTVYLQMNSLKPEDTAVYYCATYSRWDYGYWGQGTQVTVSS | high polyreactivity |
| QVQLGESGGGLVQAGGSLRLSCAASGSTFSCYAMGWYRQAPGKEREFVAAISWSGGSTYYADSVKGRFTISRDTAKNTVYLQMNSLKPEDTEVYYCAATRRGPYWWFGYDYWGQGTQVTVSS | high polyreactivity |
| QVQLVESGGGLVQAGGSLRLSCAASGRIFRYYAMGWYRQAPGKEREFVAAITYIGGSTYYADSVKGRFTISRDNAKNTVYLQMNSLKPEDTAVYWGQGTQVTVSS | low polyreactivity |
| QVQLVESGGGLVQAGGSLRISCAASGFTFKRYAMGWYRQAPGKERELVAAITWRGGSTYYADSVKGRFTISRDNAKNTVYLQMNSLKPEDTAVYYCAAYSYPYWQKRPYDYWGQGTQVTVSS | high polyreactivity |
| QLQHVESRRGLVQAGGSLRLSCAASGLTFVGYAMGWYRQAPGKERELGAAISGVGTTNYADSVKGRFTISRDNAKNTVYFQMNSLKPEDSAVYYCAKAPYPVPYGLYDYWGQGTQVTVSS | low polyreactivity |
| QVQLVESGGGLVQAGGSLRLSCAASGSTFWRYAMGWYRQAPGKERELVAGITWNGGSTYYADSVKGRFTISRDNAKNTVYLQMNCLIPEDTAVYYCAARRSWGYIYRLGYGMDYWGQGTQVTVSS | high polyreactivity |
| QVQLVESGGGLVQAGGSLRLSCAASGSTFGGYAMGWYRQAPGKERELVAAISNGDRTNYADSVKGRFTISRDNAKNTVYLQMNSLKPEDTAVYYCATQPLTWSSYRWDWRAQFDHWGQGTQVTVSS | low polyreactivity |
| QVQLVESGGRLVQAGGSLRLSCAASGFIFGTYAMGWYRQAPGKEREFVAAITRSGSSTYYADSVKGRFTISRDNAKNTVYLQMNSLKPEDTAVYYCAADLTRGRFRYYYWGQGTQVTVSS | high polyreactivity |

| Sequence | polyreactivity (PSR sort gate) |
| --- | --- |
| QVQLVESGGGLVQAGGSLRLSCAASGRILRTNAMGWYRQAPGKERELVAAISSDGSTYYADSVKGRFTISRDNAKNTVYLQMNSLKPEDTAVYYCAARLFYRGPRFDYWGQGTQVTVSS | low polyreactivity |
| QDQLVESGGGLVQSGGSLLLSCAPSGSTFVWYAMGWYRQERGKEMEFDATISWSDGSTYYADSVKGRFTISRDNPKNTVYLQMNILKPEDTAVYYCAAEQYGYYYSLWEYDNIWEGYWGPGTQVTVSS | low polyreactivity |
| QVQLVESGGGLVQAGGSLRLSCAASGSIFGANAMGWYRQAPGKERELVAAISSNGDDTYADSVMGRFTISRDNAKNTVYLQMNSLKPEDTAVYYCAARAERVREYNYWGQGTQVTVSS | low polyreactivity |
| QVQLVESGGGLVQAGGSLSLSCAASGGIFAANAMGWYRQAPGKERELVAAITRRGGSTTYADSVKGRFTISRDNAKNTVYLQMNRLKREDTAVYYCNTVYYRFYIELYFSSYDYWGQGTQVTVSS | high polyreactivity |
| QVQLVESGGGLVQAGGSLRLSCAASGILYYYAMGWYRQAPGKERELVAAITSGGSTNYADSVKGRFTISRDNAKNTVYLQMNSLKPEDTAVYYCNARRWWVIRDYWGQGTQVTVSS | high polyreactivity |
| QVQLVESGGGLVQAGGSLRLSCAASGSISYYYGKGWYRQAPGKERELVAAISTRGGSTYYADSVKGRFTISRDNAKNTVYLQMNSLKPEDTAVYYCNKVYYKRFYYWGQGTQVTVSS | high polyreactivity |
| QVQLVESGGGLVQAGGSLRLSCAASGRIFSVNAMGWYRQAPGKERELVASISWSGGSTYYADSVKGRFTISRDNAKNTVYLQMNSLKPEDTAVYYCNARIESYWLDFDYWGQGTQVTVSS | low polyreactivity |
| QVQHVESGGGLVQAGGSLRLSCAASGSIFHVNAMGWYRQAPGKERELVAAISSSGGRTYYADSVKGRFTISRDNAKNTVYLQMNSLKPEDTAVYYCAAASQVRQPPNGGNGYWGQGTQVTVSS | high polyreactivity |
| QVQLVESGGGLVQAGGSLRLSCAASGRTFWNYAMGWYRQATGKERELVAVIRFSDGSTYYADSVKGRFTISRDNAKNTVYLQMNSLKPEDTAVYYCAAKGPRRWGSGFDYWGQGTQVTVSS | low polyreactivity |
| QVQLVESGGGLVQAGGTLRLSCAASGRTFYYYTMGWYRQAPGKERDLVAAISSTGNTYYADSVKGRFTISRDNAKNSVYLQMNSLNPADTALYYCAASGGSSDAYWGQGTQVTVSS | high polyreactivity |
| QVQLVESGGGLVQAGGSLRLSCAASGSIFGRNAMGSSRQAPGKERELVAAITWSGDSTYYADSVKGRFTISRDNAKNTVYLLMNSLKPEDTAVYYCAAGTATDVASIGATKDYDYWGQGTQVTVSS | low polyreactivity |
| QVQLVESGGGLVQAGGSLRLSCAASGRTFGVYVMGWYIQAPGKERELVAVITISGGSTYYADSVKGRFTISRDNAKNTVYLQMNSLKPEDTAVYYCAARTYYGYDYWGQGTQVTVSS | high polyreactivity |
| QVQLQESDGGLVQAGGSLRLSCAASGSISPQYYMGWYRQAPGKEREYVAISKGTTTYSADSVKGRLTISRVNAKNTVYLQMNSLKPEDTAVYCCAAGRWLQKVHAYWDQGTQVTVSS | low polyreactivity |
| QVQLVESGGGLVQAGGSLRLCCAASGRTFPYYALGWYRQAPGKESELVAGITSNAGSTYYADSVKGRFSISRDNAKNTVYLHRHRLKAEDTAVYYCAKYGRATRGLDNYWGQGTQVTVSS | high polyreactivity |
| QVQLVESGGGLVQAGGSLRLSCAASGSIFDIYCMGWYRHAPGKERELVASISGGAGSTNYADSVKGRFTISRDNAKNTVYLQMNSLKPEDTAVYYCAAEVYVPDYFQHKFDVEYEYWGQGTQVTVSS | low polyreactivity |
| QVQLVESGGGLVQAGGSLRLSCAASGRIFYWNAMGCYRQAPGKERELVADISTGGSTYYADSVKGRFTISRDNAKNTVYLQMNRLKPEDTAVYYCAVVYVSLWPSATDWSGFGYWGQGTQVTVSS | low polyreactivity |
| QVQLVESGGGLVQAGGSLRLSCAASGSIFDDYAMGGYRQAHGKERELVAAISSSGTSTYYADSVKGRFTISRDNAKNTVYLQMNCLKPEDTAVYYCAARSAILKSAYLMDYWGQGTQVTVSS | low polyreactivity |
| QVQLEESGGGLVQAGGSLRLSCAASGRTFWLYAMGRYRQAPGKEREFVASISSSGDSTYYADSVKGRFTISRDNAKNTVYLQMNSLKPEDTAVYDCAARPSRRYLRNGLDYWGQGTQVTVSS | high polyreactivity |
| QVQLEESGGGLVQAGGSLRLSCAASGRIFKSYTMGGYRQAPGKERELVAAITKSAASTYYADSVKGRFTISRDNAKNTVYLQMNSLKPVDTAVYYCAASRIGGGKVKFGYWGQGTQVTVSS | high polyreactivity |
| QVQLVESGGGLVQAGGSLRLSCAASGITFRPYPMGWYRQAPGKERELVATINWSGGSTYYADSVKGRFTISRDNAKKTVYLQMNSLKPEDTAVSYCAVTWYVRRWYGYWGQGTQVTVSS | high polyreactivity |
| QVKLVESGGGLVQAGGSLRLSCAASARIFAQYDMGWYRQEPGKEREFVAAISGGGSSKYYADSVKGRFTISRDNAKNTGYLQMNSLKPEDTAVYYCAAYGRYPSWYAPGNEYWGQGTQVTVSS | low polyreactivity |
